Results published in patent US20210087258A1 (UNIVERSITY OF TOKYO, published 2021).

Target: T1, P1-2 domain of VP1 of human norovirus (GII.4 strain) (human norovirus (GII.4 strain))
T1 construct: also called VP1 P1-2 domain
T1 chain: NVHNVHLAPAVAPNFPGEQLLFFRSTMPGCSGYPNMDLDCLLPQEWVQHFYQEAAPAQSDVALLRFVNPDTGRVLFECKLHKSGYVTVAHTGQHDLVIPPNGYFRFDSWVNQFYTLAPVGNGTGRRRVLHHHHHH
Assay: Western blot of denatured VP1 domains

B1: KVP-7C6 (VHH)
VHH: EVQLVESGGGLVQAGGSLRLSCAASGRTFGPNVMGWYRQAPGKQRELVASKTSGRLSNYADSVKGRFAISRDFAKNTLYLQMNNLRPDDTAVYYCRLWDSARSTEYWGQGTQVTVSS
notes: Llama VHH (nanoantibody) expressed in E. coli from pMEK222 (FLAG tag and His tag); not shown: FLAG tag and His tag from vector pMEK222
binding result: no binding (tested: 10 µg/ml)

B2: KVP-12B8 (VHH)
VHH: EVQLVESGGGSVQSGGSLRLSCAASGYPFSDNAMGWYRQAPGNQRELVATITNSNSTKYADSVKGRFTISRDSAKNTIYLEMNSLKPEDTAIYYCRIERTGRTSIKWTYWGQGTQVTVSS
notes: Llama VHH (nanoantibody) expressed in E. coli from pMEK222 (FLAG tag and His tag); also called IC VP-12B8; not shown: FLAG tag and His tag from vector pMEK222
binding result: no binding (tested: 10 µg/ml)
